Experimental data published in US12428627B2, “Mutant p-hydroxyphenylpyruvate dioxygenase, and coding nucleic acid and use thereof” (Qingdao Kingagroot Chemical Compound Co., Ltd., priority 2018, dated 2025).

Columns and labels:
[1] = test system: rice HPPD (OsHPPD); test: Color reaction of recombinant E. coli expressing wild-type or mutant rice HPPD, cultured in 96-well plate in medium containing an HPPD-inhibiting herbicide and tyrosine; format: cell-based, Oryza sativa; conditions: compound 101
Method in brief: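 E. coli clones expressing wild-type or single-site-mutant rice HPPD (residues 51 onward, NNK saturation mutagenesis, pET-44a) grown 24 h at 28 °C in 2×YT with 1 g/L L-Tyr, 0.1 mM IPTG, 0.01 mM MnCl2 and herbicide at 1–20 μM final (tembotrione 1.7 μM, mesotrione 10 μM). Brown homogentisate colour scored semi-quantitatively versus wild type.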

[2] = test system: Huaidao No. 5 rice seedlings; test: Gene-edited rice seedlings (base editing / homologous replacement of HPPD gene) on medium containing tembotrione; format: in vivo; conditions: medium containing 0.4 μM tembotrione
Procedure: The calli of Huaidao No. 5 (at least 3000 callis) were infected according to the aforesaid method for infecting rice callis with Agrobacterium. After being infected with Agrobacterium, the infected calli were transferred to a 50 mg/L hyg screening medium for screening culture. After three rounds (15 days×3) of screening, the blond calli with good growth state were picked out to differentiate in a differentiation medium, and 0.2 μM tembotrione was added during the differentiation process for screening. After for 3-4 weeks, about 1,500 seedlings with around 1 cm were obtained. As to the about 1,500 differentiated seedlings, the vast majority of which had been bleached, and only 4 seedlings remained normal green. The 4 seedlings were transplanted to a rooting medium containing 0.4 μM tembotrione and cultivated for 2 weeks, wherein two seedlings had been bleached, while the other two seedlings remained green (FIG. 14A). A small number of leaves were used to extract genomic DNA by CTAB method. PCR was carried out by using the primers oshppd54F: TTCCACCACGTCGAGCTC and Oshppd356R: […]. The amplified product was detected by 1% agarose electrophoresis and sequenced by Sanger sequencing method. […]

B1: H141R/G342D/D370N: three-site mutant rice HPPD (OsHPPD3M) (protein, listed as Oryza sativa)
chain: MPPTPTPTATTGAVSAAAAAGENAGFRLVGHRRFVRANPRSDRFQALAFHHVELWCADAASAAGRFAFALGAPLAARSDLSTGNSAHASLLLRSASVAFLFTAPYGGDHGVGADAATTASIPSFSPGAARRFAADHGLAVRAVALRVADAADAFRASVAAGARPAFQPADLGGGFGLAEVELYGDVVLRFVSHPDGADAPFLPGFEGVSNPGAVDYGLRRFDHVVGNVPELAPVAAYISGFTGFHEFAEFTAEDVGTAESGLNSVVLANNAETVLLPLNEPVHGTKRRSQIQTYLDHHGGPGVQHIALASDDVLGTLREMRARSAMGGFEFLAPPPPNYYDDVRRRAGDVLSEEQINECQELGVLVDRDNQGVLLQIFTKPVGDRPTFFLEMIQRIGCMEKDESGQEYQKGGCGGFGKGNFSELFKSIEEYEKSLEAKQAPTVQGS
modifications: The amino acid sequence of Wild-Type rice HPPD protein (OsHPPD _WT)
concentration of 101 required to have no significant color reaction [1]: 120 µM
state of successfully edited seedlings [2]: remain green
